{"source": "paper PMC4721548", "about": "“Conformational heterogeneity of the Roc domains in C. tepidum Roc–COR and implications for human LRRK2 Parkinson mutations” (Bioscience Reports, 2015)", "target": "the molecule itself", "assay": "DEER (pulse EPR) inter-spin distance measurement; single-site MTSSL-labelled RocCOR, 50-100 uM protein, frozen at 50 K, X band; 150 mM NaCl, 30 mM Tris/HCl, 5 mM MgCl2, pH 7.5, 5% glycerol; apo, 1 mM GppNHp, GDP-AlFx (1 mM GDP, 1 mM AlCl3, 10 mM NaF) or 1 mM GDP; distances between the two symmetry-related labels of the dimer", "data": [{"protein": "C. tepidum RocCOR (AA 412-946) C600R1 + Y558A (domain or fragment, Chlorobium tepidum, UniProt Q8KC98 412-946, looked up, MTSSL spin label on the native cysteine at 600 (R1 side chain), Roco protein of Chlorobium tepidum, RocCOR tandem, AA 412-946; native Cys600 used for labelling; Y558 corresponds to Arg1441 of human LRRK2) DNPLESPPPEIVKQGKEAVRQYFQSIEEARSKGEALVHLQEIKVHLIGDGMAGKTSLLKQLIGETFDPKESQTHGLNVVTKQAPNIKGLENDDELKECLFHFWDFGGQEIMHASHQFFMTRSSVYMLLLDSRTDSNKHYWLRHIEKAGGKSPVIVVMNKIDENPSYNIEQKKINERFPAIENRFHRISCKNGDGVESIAKSLKSAVLHPDSIYGTPLAPSWIKVKEKLVEATTAQRYLNRTEVEKICNDSGITDPGERKTLLGYLNNLGIVLYFEALDLSEIYVLDPHWVTIGVYRIINSSKTKNGHLNTSALGYILNEEQIRCDEYDPAKNNKFTYTLLEQRYLLDIMKQFELCYDEGKGLFIIPSNLPTQIDNEPEITEGEPLRFIMKYDYLPSTIIPRLMIAMQHQILDRMQWRYGMVLKSQDHEGALAKVVAETKDSTITIAIQGEPRCKREYLSIIWYEIKKINANFTNLDVKEFIPLPGHPDELVEYKELLGLEKMGRDEYVSGKLEKVFSVSKMLDSVISKEERNKER", "values": [{"measurement": "binding result", "value": "binds"}]}, {"protein": "C. tepidum RocCOR (AA 412-946) C600R1, spin-labelled at the native cysteine 600 in the Roc domain (domain or fragment, Chlorobium tepidum, UniProt Q8KC98 412-946, looked up, MTSSL spin label on the native cysteine at 600 (R1 side chain), Roco protein of Chlorobium tepidum, RocCOR tandem, AA 412-946; native Cys600 used for labelling; Forms a homodimer; the row is the protomer with itself; also called C600R1^Roc) DNPLESPPPEIVKQGKEAVRQYFQSIEEARSKGEALVHLQEIKVHLIGDGMAGKTSLLKQLIGETFDPKESQTHGLNVVTKQAPNIKGLENDDELKECLFHFWDFGGQEIMHASHQFFMTRSSVYMLLLDSRTDSNKHYWLRHIEKYGGKSPVIVVMNKIDENPSYNIEQKKINERFPAIENRFHRISCKNGDGVESIAKSLKSAVLHPDSIYGTPLAPSWIKVKEKLVEATTAQRYLNRTEVEKICNDSGITDPGERKTLLGYLNNLGIVLYFEALDLSEIYVLDPHWVTIGVYRIINSSKTKNGHLNTSALGYILNEEQIRCDEYDPAKNNKFTYTLLEQRYLLDIMKQFELCYDEGKGLFIIPSNLPTQIDNEPEITEGEPLRFIMKYDYLPSTIIPRLMIAMQHQILDRMQWRYGMVLKSQDHEGALAKVVAETKDSTITIAIQGEPRCKREYLSIIWYEIKKINANFTNLDVKEFIPLPGHPDELVEYKELLGLEKMGRDEYVSGKLEKVFSVSKMLDSVISKEERNKER", "values": [{"measurement": "binding result", "value": "binds"}]}, {"protein": "C. tepidum RocCOR (AA 412-946) C600R1 + L487A (domain or fragment, Chlorobium tepidum, UniProt Q8KC98 412-946, looked up, MTSSL spin label on the native cysteine at 600 (R1 side chain), Roco protein of Chlorobium tepidum, RocCOR tandem, AA 412-946; native Cys600 used for labelling; L487 corresponds to Ile1371 of human LRRK2) DNPLESPPPEIVKQGKEAVRQYFQSIEEARSKGEALVHLQEIKVHLIGDGMAGKTSLLKQLIGETFDPKESQTHGANVVTKQAPNIKGLENDDELKECLFHFWDFGGQEIMHASHQFFMTRSSVYMLLLDSRTDSNKHYWLRHIEKYGGKSPVIVVMNKIDENPSYNIEQKKINERFPAIENRFHRISCKNGDGVESIAKSLKSAVLHPDSIYGTPLAPSWIKVKEKLVEATTAQRYLNRTEVEKICNDSGITDPGERKTLLGYLNNLGIVLYFEALDLSEIYVLDPHWVTIGVYRIINSSKTKNGHLNTSALGYILNEEQIRCDEYDPAKNNKFTYTLLEQRYLLDIMKQFELCYDEGKGLFIIPSNLPTQIDNEPEITEGEPLRFIMKYDYLPSTIIPRLMIAMQHQILDRMQWRYGMVLKSQDHEGALAKVVAETKDSTITIAIQGEPRCKREYLSIIWYEIKKINANFTNLDVKEFIPLPGHPDELVEYKELLGLEKMGRDEYVSGKLEKVFSVSKMLDSVISKEERNKER", "values": [{"measurement": "binding result", "value": "binds"}]}]}
